This assay addresses T1, Eptatretus stoutii FIL-Alpha including a polyhistidine tag (Eptatretus stoutii, UniProt Q90501 1-643).
T1 construct: Recombinant protein expressed in E. coli; also called alpha protein; hagfish intermediate filament alpha protein
T1 sequence: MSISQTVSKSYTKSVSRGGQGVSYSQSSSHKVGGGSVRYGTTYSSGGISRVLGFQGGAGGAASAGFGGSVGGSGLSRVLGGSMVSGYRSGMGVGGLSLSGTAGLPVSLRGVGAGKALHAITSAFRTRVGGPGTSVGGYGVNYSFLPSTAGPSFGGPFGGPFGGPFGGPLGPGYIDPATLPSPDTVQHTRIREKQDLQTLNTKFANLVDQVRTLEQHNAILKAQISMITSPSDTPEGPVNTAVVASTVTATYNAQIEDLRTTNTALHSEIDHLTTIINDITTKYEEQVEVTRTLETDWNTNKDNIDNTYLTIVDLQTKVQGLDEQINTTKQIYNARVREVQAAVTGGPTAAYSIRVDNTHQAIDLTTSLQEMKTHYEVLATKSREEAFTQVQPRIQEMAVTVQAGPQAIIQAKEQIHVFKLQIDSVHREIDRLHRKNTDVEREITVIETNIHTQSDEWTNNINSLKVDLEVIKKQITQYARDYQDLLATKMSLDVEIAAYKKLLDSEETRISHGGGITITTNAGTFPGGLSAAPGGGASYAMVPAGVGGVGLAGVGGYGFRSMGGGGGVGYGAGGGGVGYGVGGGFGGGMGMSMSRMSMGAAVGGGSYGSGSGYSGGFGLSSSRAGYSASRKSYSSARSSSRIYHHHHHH
Description: filament/thread self-assembly of refolded recombinant His-tagged proteins; filaments observed by microscopy.

B1: Eptatretus stoutii FIL-Gamma including a polyhistidine tag (other)
chain: MASHSSVSYRSVRTGGTSAMIGSSGYGGSSSSRAMGLGMGAAGLSMGGGSFRVGSAGIGGMGISSGIGGMGISSRAGGMSAYGGAASGGAGGFVSGGVPMLGYGGGAGGFIGGVSPGIMASPAFTAGRAITSAGMSGVVGTLGPAGGMVPSLVSRDEVKNILGTLNQRLASYVDKVRQLTIENETMEEELKNLTGGVPMSPDSTVNLENVETQVTEMLTEVSNLTLERVRLEIDVDHLRATADEIKSKYEFELGVRMQLETDIANMKRDLEAANDMRVDLDSKFNFLTEELTFQRKTQMEELNTLKQQFGRLGPVQTSVIELDNVKSVNLTDALNVMREEYQQVVTKNVQEAETYCKMQIDQIQGISTQTTEQISILDKEINTLEKELQPLNVEYQRLLTTYQTLGDRLTDLQNRESIDLVQFQNTYTRYEQEIEGNQVDLQRQLVTYQQLLDVKTALDAEIATYKKLLEGQELMVRTAMADDFAHATVVRSGTLGGASSSSVGYGASSTTLGAISGGYSTGGGASYSAGAGGASYSAGAGGASYGVGGGYSGGSSAMMEGSSSGGHSMYSSSSMKRSSSKSASASAGGYGTSGHDSTIILQQHHHHHH
notes: also called gamma protein; hagfish intermediate filament gamma protein
Consider B1, for which the binding result was “binds”.

The values above are taken from patent US20190002529A1 (GOVERNMENT OF THE UNITED STATES OF AMERICA AS REPRESENTED …, published 2019).
